Test results from the DeepSol protein solubility set.

Assay: soluble on expression in E. coli; label from the status in PepcDB or PDB records

Soluble on expression in E. coli, not soluble:
MGSDKIHHHHHHMLWFKNLMIYRLSQDSVLSKDNVLSTDEMEKRLSAFAFTPCGSQDMMKTGWVSPMGSHSDALTHVVNGQIVICVRKEEKILPSPVIKQTLQAKIERLEAEQHRKLKKTEKDSLKDEVLHSLLPRAFSRLSQVWLWIDTVNGLIMVDAASAKKAEDTLALLRKTLGSLPVVPLTMENPIELTLTEWVRSGEPAAGFALQDEAELKAILEDGGVIRCKKQDLVCDEIAVHIEAGKLVTKLALDWQERIQLILSDDGSVKRLKFSDTLREQNDDIDREDFAQRFDADFILMTSELAALIANLIEALGGEAQR
MGSDKIHHHHHHMLYSFSRLVYRILTVVGVLDGRAAYKRRIQLTGRSTYIVSLPKEWVETWRLGRGSEVTLEVMPDGSLKIAPSASERPARRDRRVIDLRGKELDLSFVIKSVIASYLAGYDEVLLLFGDGSVDAVSKIRSIVESNILGFNVLEEGPGYIVFVSVVDHRSMEFSRALSRMARIAAEMIRDVARGLENGDRGLLDLVAERDQLVDKLYLYMARQMTMASSGRLPLKDLGVYSPAEIVHLFLAVKSIERVADHATILSVRVSASLGAGMSVENGLSSLVMEAAEGFSKSVEALIKADAGLAASIAPVLSEYRSRLESMTAQEFLRGGGSLLRYLVIDSMRRITGYSLDIAEAALDISAVREKAKSEGP
MGSDKIHHHHHHMMATSAVEKIDYWQASILKEMELSRAQFTHFAFEKHVHLDYHIGVVCHGGQRYHHRGSEYRLTPGNISTLNPDESHNGQSIADGGYEALVMSLPTSYVQQVGGALNQGELYFSTPILDDPKLRAYFIRLHRQLTLHQANITPLEAETLLLGFISELFYRHGKLRNLPSCQARLSGAQLDNIKQQFHQGLDQEFELEQLALSVDLSKFQFLRQFKAATGMTPHAYLKRLRLEYAKKALMRGDSAISTAYDLGFFDQSHFNKAFKRAFLITPAHFQKRVTP
MGSDKIHHHHHHMMFKWPWKADDESGNAEMPWEQALAIPVLAHLSSTEQHKLTQMAARFLQQKRLVALQGLELTPLHQARIAMLFCLPVLELGIEWLDGFHEVLIYPAPFIVDDEWEDDIGLVHNQRVVQSGQSWQQGPVVLNWLDIQDSFDASGFNLVVHEVAHKLDTRNGDRASGVPLIPLREVAGWEHDLHAAMNNIQDEIDLVGESAASIDAYAATDPAECFAVLSEYFFSAPELFAPRFPALWQRFCHFYRQDPLARRRENGLQDEGDRRIVH
MGSDKIHHHHHHMMKILFIYRHPSMGFSIGKVFRPIEEEMKKYAEVDSIYMPTSQYSLNSIWQNIKTTRKAINSKKYDIVHITGTEHYLIPFLLGEKVVVTVHDLGHYFDIHGLKKILFWIMQIFSLKFAKAITCISNFTVQELKKTISIKNNKISVIFNEVDKNFSFKEKEFNKDYPVILHIGTRPHKNLSRTIKALNGIKCKLRIIGEITNKELDLLQKYKTDYSFASNLSDNDLLKEYQNADIINFPSCHEGFGMPIIEGQAVGRIVVTSNIEPMISVANNGAAICDPYNIESIRNTYIRVINDFQYRNDIILKGIDNVKKYSIETVAKQYFELYKTL
MGSDKIHHHHHHMMKTDYVFCVDSDGCAMDTMTYKHKLFFGPLAADVFDVKDREPFLAEWNRVNLYSRERGINRFVGLVKGLDFAGVTGIDNLKNWVATTDSLSNASLERLIEETPSKDLELALEWSTQVNQAIKHYSGPVLAFIGVHKGLEKLSQLGKVYVVSSANKEAVEEEWTDQGLLDFVTELYCQDRGKKEDVIKILIEEGYCPDKIMMIGDSPGDLKAAELNGVHFYPILVGQEMQSWADLTETIADEFAHQAFTGEKETELIQAFWNNLDD
MGSDKIHHHHHHMMLVQLRQVGVIRSPYKNFSKAPHQGRFSKETVEIEIFPEFEDGLKDIETCTHLIVLYWLDRANRDALLVVPPHDSREHGVFATRSPHRPNPIGFAVVELLERDGRVLKVKGLDALDGTPVVDIKPYSSTIDSVGNAKIGWFEEANPQSKLTRLLLRAKEFHGHICPFVALGVRMSVIAMEKLGVEEDAMASVGEDILAIVECNNCLTDGVQVATGCTLGNNSLIYLDLGKNALTIVRRKDWKGVRVYVNAENVRKYFSKEALELFNKVIVRREGSEEDAKRLSEFWEETGWKMLEIPEEEFKVEFVEVQPIERAPIFENKRCEKCGELAMATRVKDGLCLRCAGSYYAVVGRGIVKFDGEMREVV
MGSDKIHHHHHHMMNNIGLILFDIDGVIRDVTNSYRLAIQETVNFFSGWRPSIEDIDSIKSEGCWNNDWDLSLEMINRHVQKNNLSFSAPSRKILIECFENFYFGGDPNHDSSEWSGFIKDETLLVKKTFFEELTQRRIGWGFVSGAELPSAKFVLEQRLGLASAPLIAMGEAPEKPDPTGFISLSSKLSKKPLGFSNPPIAYIGDTVADVKTVINARIKIPDQKFISLAIAPPHLHVDSSREKRLRYEAELKKAGADLIIKSMDNLKNETLNLFINQ
MGSDKIHHHHHHMMNTTETAPVLNPALEDEYSKALDEIKQFGEAQTHTVHDLGSATWAMRKLGELNKEDAEARKVVQANIDQLNEWLQHSLEARQSRRNYLEHEVLAYVANNRKHDPKYKLDTPYGKVSFTVKRKATPAISDETQVLNFIKSNWNESEQTQVIKRTEKVLVSELKKQVTVAGDKVIDEDGQPIPGMHVDPAGTETPHIKPIQMTEALS
MGSDKIHHHHHHMMPMDWEITFKGITYECINCAYCCSCKGWRIYLNYFDRLKLKDYEYAIEPCEGEFKYRLKVNEKGCVLLNNNLCRIHLEKGYEFKPLMCMIFPFSCMIKWDGTPLLIIKHYCSGIKKGKISKKVVNEAIELIKELYFDMFEEIIENGMEHSSKTEIFENFRVDWEEREDFGRYIFSSKTFDEMFERCREIFGNKINKLNLEEIDEIKNNLQRYNTKENEEEILRYLLELNRREHFRKLPFYREVNKLINIGNYLTKYKNVFKGEGEVDKKLFLNLK
MGSDKIHHHHHHMMSEEKILSVDFTQEDAYTEILPRSPLVSSYHAQWQGLRLDVHQQPGHETPEHSPQQHVLTVSLEQQIVRSERILDGRLQYENIAKGDVAIIPAQTRHISRWQSEAKFLVLSMEPAFFTRMVIEAGDLQKIEIKPRFAAPDPLIQQIGLALQTELESEHKGSSIYIESLTTTLCIHLLKHYCVTGGTILDDHHHKGLSHWKLRQAISYIHENLDQDLTLVDISTAVGMSMYYFSRQFKQSTGFAPHQYVMNCRIERAKKLLGSTNKTIEQICTQVGFQSQSHFTNVFRKLMGITPRVYREQVKT
MGSDKIHHHHHHMMSFREDKLLATNVPMRIVSLISKINEYKGKQVLYNQQAPEVLNTLKNVAIIQSTRASNSLEGITIKDTRLIDIMQNKVQPANRSEGEIAGYRDVLATIHSSYDAIPVKPSILLQFHRDLYRFISLEGGSWKNSDNAIEEVYPDGSKFVRFNPVSSFATPGAIEELCKFYNQYSNSGEIDSLMLISATILDFLCIHPFCDGNGRMARLLTLLLLYKEGYEVGRFISLEQIIEESKDAYYDTLYQSSQNWHEGKHDLLIWSEYLLGIILAAYKELMDRVGKVSRARGNKAMRVEETIDHFVSNFSINDIRRRCPDISPSTINRVLAKLRDANKIEVLGIGRGAKWKKNY
MGSDKIHHHHHHMNALPLVSVVVPNYNYKRYLNLRIQSILQQTYQNIELILLDDASTDGSEEVLSDYQDHAKVSHILLNEHNTGNPFKQWFKGMQLAKGKYIWIAEADDLCELTFLEKVVPLMEKYQQAAVCFAGSKYIDKDGNVLSYDMNKWKSAIPPYAVFNGKTYAEHNLYWRSYIANASSAIFRKSMVNAQNMEQCLQMRYSGDWLFWFYMAMQGDIIERYEVLNYFRQHNQKVTVKAENNGGGKSEDIEIVRIMEQHLTHLSRYKRCIRRGMLYNRIAKLSTTDRVKLQLWELLRQKLNGTRKDGRLERLNRIARLFCPFVLTMKRDRLTPSREIG
MGSDKIHHHHHHMNALRLEDLISVEMLQKVQDNFSAAVGIAMIIVDERGTPVTRPSNFSAFCQTIRTSAARRDQCFQCDDDGGRRAMAMGEPSIYQCHCGLVDFAAPIIVRDQYLGAVISGQVRLRQGHEVTLEYIAPPDESWRQDAHLIALREKITEIPYVKLRSAAYTLYHLAAYLVEESYSNAVSQELSAKNLKLMEESKRRVELEKSLREAELQALSYQVNPHFLFNVLNTIGRLALKEHAPKTEDMLYAFADMMRYVLKKSRSQIVSLQTEVGHVRNYLHIQKVRMGDRFTFTMDVPAKYDGILCPFMVLHPIVENSINYAIEPHEADGRIEITARDDGLNMILRVVDNGDGVSPELVRAALDGVAEPHGRTSIGLHNVDSRLRHFFGPDYGLTVESPATPGGRHGRRDALSPGLRSLRHLNACAEERRLCTALSLLKTRNSSARRCAPF
MGSDKIHHHHHHMNAQTPIRRPISLVLASPRGFCAGVDRAIQIVERAVEKFGAPVYVRHEIVHNRHVVDRLKALGAVFIEELEEAPDDRPVVFSAHGVPKSVPAEAKARQMIYLDATCPLVSKVHVEAQKHYDAGREIVLIGHAGHPEVIGTMGQLPEGAVTLIEDLKDAAAWEPKDAANVAFLTQTTLSVDDTADMVALLRERFPGIAAPHKEDICYATTNRQDAVKHLAEQSELILVVGSKNSSNSVRLKEVGLKAGARDAHLIDDASGIDWTWFDGISRVGLTAGASAPEDLVQGVIDAISARFDTTVEELVEARETITFKLPRLLTA
MGSDKIHHHHHHMNAVPQWRLAGDWFDICSCDIPCPCEFAQRPTGNHCQGVLAWHVREGQYGDVKLDGLTLVALGEFEGNLWAGEAKAVMGMYLDEKANESQREALQAIFGGHAGGWPAGFAANVGEMRGMEFVPITFEVAGDLATWRVEIPGLVVGRVEALSGPTTPPGKRVQTINPPGSEVGPGQVATWGRSVEVSTKGFGLDWIGTARSSKHIPFDWTGPS
MGSDKIHHHHHHMNDFEEYIRQSEPHKREKGYAWQTAIGLQAVDGLKPSEYLKEKARQHIEGDITIDEVKQLVDSYYKSKVARSSSEDRTEEADKVSARITEILSENTFTFSPIEYLAIHRHLFEGIFSHAGQIRDYNITKNEWVLKGATVLYASAGSIRETLEYDFSQEKIFDYKNLNIDEAIRHIARFVSGIWQIHAFGEGNTRTTAVFTIKYLHTFGFNFSNETFANHSWYFRNALVRANYNDLTKGVYATTEFLEKFFRNLILNEQNELKNRNLQIDEIEKEAIQSAKQTDMDIPKCKNCTLDCTLEEIAVLNYLKEKPNATQKEIAQHIGKSERTVKSMTVNLSERGIIERKNGRRNGFWEIKK
MGSDKIHHHHHHMNEIRVSSWPALHEVLYGESWNPRLGRFRSPFVFRGQSRAEAKLTTTLQRLSGETREIERHLLRNFRKYAYRNGMDRDLPWYWLAVGQHHGLPTRLLDWTTSPLVALHFATAEEDHYSQDGVVWMVNFIRTNERLPAPLKALLEQEGADVFTVDMLTAFSRAHRSQQMPELGQQPSFDLSWLEDLEREAEHPFLLFLEPPSIDERIVQQAALFSLLSDPEAALDDWLVQHPGTAHKVILPADLKWEIRDKLDQSNITERTLFPGLGGLSQALRRYYRVGRDPSQQQGATAEEQAQEMERQN
